This is an account of results in paper PMC6905856, “Movement of accessible plasma membrane cholesterol by the GRAMD1 lipid transfer protein complex” (eLife, 2019).

This data set deals with the molecule itself. Briefly: SEC; purified EGFP fusion of the luminal helix region alone on Superdex 200 increase 10/300 GL; 20 mM HEPES, 300 mM NaCl, 10% glycerol, 0.5 mM TCEP, pH 7.5; self-association judged from the elution volume. (In general: Size exclusion chromatography separates by hydrodynamic size, large species first.)

B1: EGFP-tagged luminal helix region of wild-type GRAMD1b (EGFP–helix: EGFP–GRAMD1b 674–718) (domain or fragment, human, UniProt Q3KR37-1 674-718, looked up)
chain: SQTEWAQLLESQQKYHDTELQKWREIIKSSVMLLDQMKDSLINLQ
notes: GRAMD1b, human, luminal helix region, residues 674-718; Predicted molecular weight ~35 kDa; also called EGFP-linker-GRAMD1b luminal helix; EGFP–(GGGS)3–GRAMD1b luminal helix (674–718); source: E. coli BL21-DE3 Rosetta, purified (Co-TALON or Ni-NTA, gel filtration on Superdex 200 increase); not shown: EGFP with (GGGS)3 linker, N-terminal, kept
Turning to B1, the binding result was “binds”.
